This data set is described as follows: label from the status in PepcDB records.
For “MAMEIGEDEWKVCCGSSEFAKQMSTSGPLTSQEAIYTARDIWFNQVNVTDWLEAFSAHPQIGNTPSPSINSDFARRSVSEQSTAFATTSASALQELAEWNVLYKKKFGFIFIICASGRTHAEMLHALKERYENRPIVELEIAAMEQMKITELRMAKLFSDKAKVISETDSSSSPVSTKPQDRLRIIGGHLNVAAEAKAPKRSRPPITTHVLDVSRGAPAAGVEVHLEVWSGTTGPSFVHGGGGVWSSVGTSATDRDGRSGPLMDLVDALNPGTYRISFDTAKYSPGCFFPYVSIVFQVTESQKWEHFHVPLLLAPFSFSTYRGS”, the protein production entry is reported as “failed”.

Turning to “MAMEKPVLWYIADPMCSWCWGFAPVIENIRQEYSAFLTVKIMPGGLRPGTNTPLLPEKRAQILHHWHSVHITTGQPFTFENALPEGFIYDTEPACRGVVSVSLIEPEKVFPFFAAIQRAFYVGQEDVAQLAILKKLAVDLGIPESRFTPVFQSDEAKQRTLAGFQRVAQWGISGFPALVVESGTDRYLITTGYRPIEALRQLLDTWLQQHGV”, the protein production entry is listed as “not failed”.

Turning to “MAMMAKHQAVKKIFDQIATKYDLIDTIISLGLDQHWRRVLVSSLGLREGMRCLDCGAGSGKVTELIYFRCGGCDVTALDITDSMFNPELKKYVKFVVSPAESLPFPDASFDRVSSAFLTRNLADIDRYFAEVYRVLRPGGVFVNMDIYNPTRPVISEFFSLYFYRFVPFFGNRATGSKNYTYLANTVKYFHRPSVISQKLADRGFSVEATDLFFGAVYLHRSVKPEGRGLEHHHHHH”, the protein production result is reported as “failed”.

As for “MAMRDLVNGGAACAVPGSSSSSNPLGALTNALLGSSSKTQERLKEIPNANRSGPRPQFYSEDQQIRSLPGSELDQPLLQPGAQGSEFFRGFRSVDQNGLGAAWDEVQQGGPMPPMGPMFEPVQPTFEGPPQRVLSNFLHSFVESSRGGIPFRPAPVPVLGLSQSDKQCIRDRSSIMARHFFADRGEEFINSQVNALLSSLDIDDGIQARGHVPGRFRELDDYWNESQAVVKPNLHPADNWAAEFNQHGMDHGGPDSWVQSFEQQHGVNGWATEFEQGQSQLMSSQMRSMDMQNIAAMEQTRKLAHTLSQDGNPKFQNSRFLQFVSKMSRGELIIDENQVKQASAPGEWATEYEQQYLGPPSWADQFANEKLSHGPEQWADEFASGRGQQETAEDQWVNEFSKLNVDDWIDEFAEGPVGDSSADAWANAYDEFLNEKNAGKQTSGVYVFSDMNPYVGHPEPMKEGQELFRKGLLSEAALALEAEVMKNPENAEGWRLLGVTHAENDDDQQAIAAMMRAQEADPTNLEVLLALGVSHTNELEQATALKYLYGWLRNHPKYGAIAPPELADSLYHADIARLFNEASQLNPEDADVHIVLGVLYNLSREFDRAITSFQTALQLKPNDYSLWNKLGATQANSVQSADAISAYQQALDLKPNYVRAWANMGISYANQGMYKESIPYYVRALAMNPKADNAWQYLRLSLSCASRQDMIEACESRNLDLLQKEFPL”, the protein production entry was “failed”.

As to “MAMSLSGAVLSGMGSSFHNVGAKQSGVGTVRVGRKSELVVVAQRKKSLIYAVKSDGNILDDLNEATKKASDFVTDKTKEALADGEKTKDYIVEKTIEANETATEEAKKALDYVTEKGKEAGNKAAEFVEGKAEEAKNATKS”, the protein production result was “failed”.

As to “MANADLDKQPDSVSSVLKVFGILQALGEEREIGITELSQRVMMSKSTVYRFLQTMKTLGYVAQEGESEKYSLTLKLFELGARALQNVDLIRSADIQMRELSRLTKETIHLGALDEDSIVYIHKIDSMYNLRMYSRIGRRNPLYSTAIGKVLLAWRDRDEVKQILEGVEYKRSTERTITSTEALLPVLDQVREQGYGEDNEEQEEGLRCIAVPVFDRFGVVIAGLSISFPTLRFSEERLQEYVAMLHTAARKISAQMGYHDYPF”, the protein production result was “not failed”.

Turning to “MANDIDRAGVAKAYARWAPIYDLVFGKVFDSGRQSTIAVADAIGGRVLDVGVGTGLSLSDYSKTTRLCGVDISEPMLRKAHERVRTLNLSNVDVLAVMDAKNLAFPANYFDAVVAQYVITAVPDPEATLDDFIRVLKPGGELILVNHIGAESGPRKLFELAFSPIARRLGWRPEFPWQRLVNWAARHRGVELAERRPMPPMGHFSLIRYRKLLEHHHHHH”, the protein production result was “failed”.

On to “MANEATQELFQVLDNTAIILQNELEISYLEAVYETGENLFQKEVLQKEELSSEKQLKLQESYESIELENFSNEEIRKGLQLALLKGMKHGIQVNHQMTPDSIGFIVAYLLEKVIQKKKNISILDPACGTANLLTTVINQLELKGDVDVHASGVDVDDLLISLALVGADLQRQKMTLLHQDGLANLLVDPVDVVISDLPVGYYPDDENAKTFELCREEGHSFAHFLFIEQGMRYTKPGGYLFFLVPDAMFGTSDFAKVDKFIKKNGHIEGIIKLPETLFKSEQARKSILILRKADVNVKPPKEVLLANLSSLTDPSVTAPILAEIENWFKSKQ”, for which the protein production entry is “not failed”.

The record behind these values is a protein production outcome set (Wang et al. 2014).
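Also: failed if final PepcDB status was selected cloned or expressed and not failed if soluble or beyond.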
